± gives the uncertainty stated by the source.
Assay: self-splicing fitness, log relative to wild type (ln ratio); higher = more splicing; Tetrahymena group I intron in knt gene, E. coli kanamycin selection, DiMSum; sequences stand for … in CUCUCU…GGAGGGAAAAGUUAUCAGGCAUGCACCUGGUAGCUAGUCUUUAAACCAAUAGAUUGCAUCGGUUUAAAAGGCAAGACCGUCAAAUUGCGGGAAAGGGGUCAACAGCCGUUCAGUACCAAGUCUCAGGGGAAACUUUGAGAUGGCCUUGCAAAGGGUAUGGUAAUAAGCUGACGGACAUGGUCCUAACCACGCAGCCAAGUCCUAAGUCAACAGAUCUUCUGUUGAUAUGGAUGCAGUUCACAGACUAAAUGUCGGUCGGGGAAGAUGUAUUCUUCUCAUAAGAUAUAGUCGGACCUCUCCUUAAUGGGAGCUAGCGGAUGAAGUGAUGCAACACUGGAGCCGCUGGGAACUAAUUUGUAUGCGAAAGUAUAUUGAUUAGUUUUGGAGUACUCGUGGUCG
Outline: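 DiMSum derived fitness as the error-weighted combination of fold changes across replicates, kanamycin versus no kanamycin, normalised to wild type. E. coli BL21(DE3) held the library, which randomised all eight P1ex-region intron nucleotides within the knt kanamycin-resistance gene on pET-22b(+). Six replicate transformations grew overnight at 37°C or 30°C on LB agar with or without 25 μg/mL kanamycin, also containing 100 μg/mL carbenicillin, 50 μM IPTG and 0.2% rhamnose, and pooled colonies were amplicon-sequenced on an Illumina HiSeq 2500.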

| Sequence | self-splicing fitness (ln) (30 °C) | self-splicing fitness (ln) (37 °C) |
| --- | --- | --- |
| CUACAGCAAUAUUACGAAGG | -1.22 ± 0.1 | -1.49 ± 0.14 |
| CUACAGCAAUAUUACGAAGU | -4.24 ± 0.29 | -2.52 ± 0.19 |
| CUACAGCAAUAUUACGAAUC | -4.32 ± 0.23 | -2.61 ± 0.23 |
| CUACAGCAAUAUUACGACGU | -4.63 ± 0.23 | -3.03 ± 0.2 |
| CUACAGCAAUAUUACGAGGG | -3.38 ± 0.19 | -2.59 ± 0.2 |
| CUACAGCAAUAUUACGAUGC | -3.88 ± 0.39 | -2.81 ± 0.2 |
| CUACAGCAAUAUUACGCAGU | -3.78 ± 0.24 | -2.32 ± 0.22 |
| CUACAGCAAUAUUACGCCUU | -2.27 ± 0.2 | -1.4 ± 0.31 |
| CUACAGCAAUAUUACGCGAG | -2.9 ± 0.098 | -1.74 ± 0.1 |
| CUACAGCAAUAUUACGCGCA | -3.72 ± 0.22 | -2.12 ± 0.19 |
| CUACAGCAAUAUUACGCGGC | -2.27 ± 0.15 | -0.807 ± 0.14 |
| CUACAGCAAUAUUACGCUCG | -1.49 ± 0.089 | -1.46 ± 0.13 |
| CUACAGCAAUAUUACGGAGG | -2.21 ± 0.087 | -1.33 ± 0.11 |
| CUACAGCAAUAUUACGGAUU | -3.46 ± 0.14 | -2.5 ± 0.21 |
| CUACAGCAAUAUUACGGCUG | -3.92 ± 0.18 | -2.57 ± 0.22 |
| CUACAGCAAUAUUACGGGAU | -2.74 ± 0.15 | -2.99 ± 0.27 |
| CUACAGCAAUAUUACGGGCG | -1.2 ± 0.065 | -0.108 ± 0.092 |

| Sequence | self-splicing fitness (ln) (30 °C) | self-splicing fitness (ln) (37 °C) |
| --- | --- | --- |
| CUACAGCAAUAUUACGGUGC | -4.58 ± 0.28 | -2 ± 0.17 |
| CUACAGCAAUAUUACGGUGU | -3.23 ± 0.13 | -2.49 ± 0.14 |
| CUACAGCAAUAUUACGUACA | -1.78 ± 0.17 | -1.29 ± 0.2 |
| CUACAGCAAUAUUACGUCCU | -3.25 ± 0.18 | -2.38 ± 0.17 |
| CUACAGCAAUAUUACGUCUG | -1.77 ± 0.1 | -1.45 ± 0.13 |
| CUACAGCAAUAUUACGUUCA | -2.98 ± 0.19 | -0.865 ± 0.098 |
| CUACAGCAAUAUUACGUUGC | -3.67 ± 0.23 | -2.82 ± 0.21 |
| CUAGAGCAAUAUUACGAAUG | 0.298 ± 0.095 | 0.533 ± 0.11 |
| CUAGAGCAAUAUUACGACCU | -3.67 ± 0.27 | -2.99 ± 0.33 |
| CUAGAGCAAUAUUACGAGUA | -3.71 ± 0.23 | -1.17 ± 0.17 |
| CUAGAGCAAUAUUACGAUAU | -3.18 ± 0.27 | -2.09 ± 0.25 |
| CUAGAGCAAUAUUACGAUGA | -1.86 ± 0.14 | -1.12 ± 0.22 |
| CUAGAGCAAUAUUACGAUUG | -0.464 ± 0.071 | -0.493 ± 0.077 |
| CUAGAGCAAUAUUACGCACU | -4.52 ± 0.46 | -1.99 ± 0.41 |
| CUAGAGCAAUAUUACGCCGG | – | -0.534 ± 0.29 |
| CUAGAGCAAUAUUACGCGCA | -1.95 ± 0.33 | -1.21 ± 0.35 |
